Measured values from the supplement of paper PMC11246515.
± gives the standard deviation of the averaged measurements.

Experiment: total protein half-life in vivo (active degradation + dilution); higher = more stable protein
[1] = E. coli NCM3722 delta-clpP delta-lon delta-hslV, growth: N-lim chemostat, doubling time 6 h
[2] = E. coli NCM3722 delta-clpP, growth: N-lim chemostat, doubling time 6 h
[3] = E. coli NCM3722 delta-hslV, growth: N-lim chemostat, doubling time 6 h
[4] = E. coli NCM3722 delta-lon, growth: N-lim chemostat, doubling time 6 h
[5] = E. coli NCM3722 delta-smpB, growth: N-lim chemostat, doubling time 6 h
[6] = wild type E. coli NCM3722, growth: C-lim chemostat, doubling time 3 h
[7] = wild type E. coli NCM3722, growth: C-lim chemostat, doubling time 6 h
[8] = wild type E. coli NCM3722, growth: C-lim chemostat, doubling time 12 h
[9] = wild type E. coli NCM3722, growth: N-lim chemostat, doubling time 6 h
[10] = wild type E. coli NCM3722, growth: N-lim chemostat, doubling time 12 h
[11] = wild type E. coli NCM3722, growth: P-lim chemostat, doubling time 6 h
[12] = wild type E. coli NCM3722, growth: P-lim chemostat, doubling time 12 h

MSSKEQKTPEGQAPEEIIMDQHEEIEAVEPEASAEQVDPRDEKVANLEAQLAEAQTRERDGILRVKAEMENLRRRTELDIEKAHKFALEKFINELLPVIDSLDRALEVADKANPDMSAMVEGIELTLKSMLDVVRKFGVEVIAETNVPLDPNVHQAIAMVESDDVAPGNVLGIMQKGYTLNGRTIRAAMVTVAKAKA
total protein half-life in vivo [1]: 6.35 ± 0.23 h
total protein half-life in vivo [2]: 6.61 ± 1.3 h
total protein half-life in vivo [3]: 5.31 ± 0.46 h
total protein half-life in vivo [4]: 5.19 ± 0.26 h
total protein half-life in vivo [5]: 4.79 ± 0.18 h
total protein half-life in vivo [6]: 3.024 ± 0.0063 h
total protein half-life in vivo [7]: 5.43 ± 0.17 h
total protein half-life in vivo [8]: 9.26 ± 0.18 h
total protein half-life in vivo [9]: 5.66 ± 0.14 h
total protein half-life in vivo [10]: 8.74 ± 0.79 h
total protein half-life in vivo [11]: 5.26 ± 0.24 h
total protein half-life in vivo [12]: 10.7 ± 0.15 h

MRCKGFLFDLDGTLVDSLPAVERAWSNWARRHGLAPEEVLAFIHGKQAITSLRHFMAGKSEADIAAEFTRLEHIEATETEGITALPGAIALLSHLNKAGIPWAIVTSGSMPVARARHKIAGLPAPEVFVTAERVKRGKPEPDAYLLGAQLLGLAPQECVVVEDAPAGVLSGLAAGCHVIAVNAPADTPRLNEVDLVLHSLEQITVTKQPNGDVIIQ
total protein half-life in vivo [1]: 4.84 ± 0.48 h
total protein half-life in vivo [2]: 5.45 ± 1.7 h
total protein half-life in vivo [3]: 4.91 ± 0.61 h
total protein half-life in vivo [4]: 5.46 ± 0.45 h
total protein half-life in vivo [5]: 3.992 ± 0.0097 h
total protein half-life in vivo [6]: 3.06 ± 0.1 h
total protein half-life in vivo [7]: 6.07 ± 0.31 h
total protein half-life in vivo [8]: 10.1 ± 0.43 h
total protein half-life in vivo [9]: 4.54 ± 0.39 h
total protein half-life in vivo [10]: 6.8 ± 0.18 h
total protein half-life in vivo [11]: 5.77 ± 0.43 h
total protein half-life in vivo [12]: 11.4 ± 0.17 h

MDQALLDGGYRCYTGEKIDVYFNTAICQHSGNCVRGNGKLFNLKRKPWIMPDEVDVATVVKVIDTCPSGALKYRHK [P0AF59]
total protein half-life in vivo [1]: 5.57 ± 0.28 h
total protein half-life in vivo [2]: 5.03 h
total protein half-life in vivo [3]: 5.21 ± 0.78 h
total protein half-life in vivo [4]: 6.02 ± 0.5 h
total protein half-life in vivo [5]: 4.29 ± 0.66 h
total protein half-life in vivo [6]: 1.83 h
total protein half-life in vivo [8]: 8.02 h
total protein half-life in vivo [9]: 5.6 ± 1 h
total protein half-life in vivo [10]: 8.71 ± 1.1 h
total protein half-life in vivo [12]: 10.5 ± 0.21 h

MAMVEMQTTAALAESRRKMQARRRLKNRIALTLSMATMAFGLFWLIWILMSTITRGIDGMSLALFTEMTPPPNTEGGGLANALAGSGLLILWATVFGTPLGIMAGIYLAEYGRKSWLAEVIRFINDILLSAPSIVVGLFVYTIVVAQMEHFSGWAGVIALALLQVPIVIRTTENMLKLVPYSLREAAYALGTPKWKMISAITLKASVSGIMTGILLAIARIAGETAPLLFTALSNQFWSTDMMQPIANLPVTIFKFAMSPFAEWQQLAWAGVLIITLCVLLLNILARVVFAKNKHG
total protein half-life in vivo [1]: 6.78 ± 1.7 h
total protein half-life in vivo [2]: 5.74 ± 0.15 h
total protein half-life in vivo [3]: > 8 h
total protein half-life in vivo [4]: 4.84 h
total protein half-life in vivo [5]: 4.97 ± 0.05 h
total protein half-life in vivo [6]: 3.37 h
total protein half-life in vivo [7]: 5.11 ± 0.51 h
total protein half-life in vivo [8]: 12.1 ± 1.3 h
total protein half-life in vivo [9]: 5.15 ± 0.12 h
total protein half-life in vivo [10]: 10.6 ± 2 h
total protein half-life in vivo [11]: 4.95 ± 0.35 h
total protein half-life in vivo [12]: 9.13 ± 0.56 h

MLGLKQVHHIAIIATDYAVSKAFYCDILGFTLQSEVYREARDSWKGDLALNGQYVIELFSFPFPPERPSRPEACGLRHLAFSVDDIDAAVAHLESHNVKCETIRVDPYTQKRFTFFNDPDGLPLELYEQ
total protein half-life in vivo [1]: 3.94 ± 0.96 h
total protein half-life in vivo [2]: 4.26 ± 0.34 h
total protein half-life in vivo [4]: 4.65 ± 0.89 h
total protein half-life in vivo [5]: 3.22 h
total protein half-life in vivo [6]: 2.51 h
total protein half-life in vivo [7]: 5.13 h
total protein half-life in vivo [8]: 11.4 h
total protein half-life in vivo [9]: 3.54 h
total protein half-life in vivo [10]: 4.57 ± 0.75 h
total protein half-life in vivo [11]: 6.05 ± 1.1 h
total protein half-life in vivo [12]: 11.7 ± 0.74 h

MTDSELMQLSEQVGQALKARGATVTTAESCTGGWVAKVITDIAGSSAWFERGFVTYSNEAKAQMIGVREETLAQHGAVSEPVVVEMAIGALKAARADYAVSISGIAGPDGGSEEKPVGTVWFAFATARGEGITRRECFSGDRDAVRRQATAYALQTLWQQFLQNT [P0A6G3]
total protein half-life in vivo [1]: 6 ± 0.73 h
total protein half-life in vivo [3]: 4.97 ± 0.2 h
total protein half-life in vivo [4]: 5.11 ± 0.27 h
total protein half-life in vivo [5]: 4.06 ± 0.093 h
total protein half-life in vivo [7]: 5.59 ± 0.56 h
total protein half-life in vivo [8]: 11 ± 1.9 h
total protein half-life in vivo [9]: 4.67 ± 0.057 h
total protein half-life in vivo [10]: 7.78 ± 0.54 h
total protein half-life in vivo [11]: 5.897 ± 0.055 h
total protein half-life in vivo [12]: 11.7 ± 0.88 h

MRKIKIGLALGSGAARGWSHIGVINALKKVGIEIDIVAGCSIGSLVGAAYACDRLSALEDWVTSFSYWDVLRLMDLSWQRGGLLRGERVFNQYREIMPETEIENCSRRFAAVATNLSTGRELWFTEGDLHLAIRASCSIPGLMAPVAHNGYWLVDGAVVNPIPISLTRALGADIVIAVDLQHDAHLMQQDLLSFNVSEENSENGDSLPWHARLKERLGSITTRRAVTAPTATEIMTTSIQVLENRLKRNRMAGDPPDILIQPVCPQISTLDFHRAHAAIAAGQLAVERKMDELLPLVRTNI [P0AFR0]
total protein half-life in vivo [1]: 5 ± 0.29 h
total protein half-life in vivo [2]: 4.67 ± 0.2 h
total protein half-life in vivo [3]: 4.923 ± 0.045 h
total protein half-life in vivo [4]: 5.26 h
total protein half-life in vivo [5]: 4.51 ± 0.14 h
total protein half-life in vivo [6]: 2.951 ± 0.017 h
total protein half-life in vivo [7]: 5.25 ± 0.36 h
total protein half-life in vivo [8]: 10.6 ± 1.2 h
total protein half-life in vivo [9]: 5.61 ± 0.09 h
total protein half-life in vivo [10]: 8.89 ± 1.5 h
total protein half-life in vivo [11]: 5.659 ± 0.02 h
total protein half-life in vivo [12]: 11.7 ± 0.5 h

MKLIITEDYQEMSRVAAHHLLGYMSKTRRVNLAITAGSTPKGMYEYLTTLVKGKPWYDNCYFYNFDEIPFRGKEGEGVTITNLRNLFFTPAGIKEENIQKLTIDNYREHDQKLAREGGLDLVVLGLGADGHFCGNLPNTTHFHEQTVEFPIQGEMVDIVAHGELGGDFSLVPDSYVTMGPKSIMAAKNLLIIVSGAGKAQALKNVLQGPVTEDVPASVLQLHPSLMVIADKAAAAELALG
total protein half-life in vivo [1]: 5.36 ± 0.6 h
total protein half-life in vivo [6]: 2.47 h
total protein half-life in vivo [7]: 3.24 h
total protein half-life in vivo [9]: 2.68 h
